Test results published in the supplement of paper PMC9170038.

Tested on: K4 kissing-loop RNA reporter
Assay: apparent KD of K4 kissing-loop reporter; higher = weaker reporter binding
Settings: Eterna round: R107; input ligand: arginine 13.2 mM
Protocol: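 RNA-MaP round R107: designed RNA switches with theophylline, tryptophan, arginine or FMN aptamers are transcribed on-chip within common flanks. They are titrated with a labelled K4 kissing-loop RNA reporter in RNA-MaP buffer (100 mM Tris pH 7.5, 80 mM KCl, 4 mM MgCl2), without ligand or with the indicated ligand. Median apparent KD per design.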
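Also: bound reporter read as fluorescence of individual clusters on recovered sequencing chips by microscopy, with normalized cluster intensities fitted with a binding model.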

In order of falling “apparent KD of K4 kissing-loop reporter” value:
1. UGUCAUUGGUCGGCCGCCACUUCAUAAAGAGUGAUGUUCUUAAAGACGGAUCGAAAGAUCUGUCGAAGGACCGGGACCGAUGACU [FiskerMod 8 - Jieux - Same State - Tryptophan B]  1.08 µM
2. GUAAGAUGAGGAGGAGGAUGAAUUACUGAAGGAGCGCAUAUAAAUGCAGGUAGGUCGCGGUAAAGAAGUAUAGUGAUGUUAUAUA [#20 K4 Arginine A Same State]  0.508 µM
3. AAGUCACAGGCAGGAUAUGCUUAGUAAUAAGGCCAUAUAUACGUAUAGAGUGAUGUUUUGUACCAGGCAGAAGGGCUACAUCCGU [FMN B Excl V3 (+2GCs)]  0.503 µM
4. AAAAUAAACCAGUGAUGUUGGUGUCCAGAUACCAGCGAUAAUCAUCGCCCUUGGCAGCUGCGGACGUACAAAAUAAGUACGUCCU [MatMod 12 - Jieux - Same State - Theophylline A]  0.475 µM
5. AACAGCAAUGCGGCCGCCACUUCGAGGUCAGUGAUGUUGACGGAAUUAAAUAAAGAUCCCAAGAGGAGGACCGGGCAGUGCUGUU [whbob_SS_Tryp_B_t25]  0.465 µM
6. GUAGGAUGAGGAGGAGGAAGAAAUACUGAAGGAGCGCAAAGAAAUGCAGGUAGGUCGCGGUAAAGAAGUAUAGUGAUGUUAUAUA [SSArgA.C]  0.45 µM
7. UCAUAUACCAGAAGGAGCGUGCAGGACGAAUUAAUCAUCGACCUUAGUGAUGUUAAGGACGCACAGGUAGGUCGCUGGUAUAUGA [Arg B SS t4]  0.431 µM
8. UAACCUGUAAACGAUACCAGUUGCAUGGAAACUUGGUACUAGCUAGUGAUGUUAGCAAGCAACCCUUGGCAGCGUCGCCUGACAG [theeternabot_sameState_KL_Theo_B_17]  0.427 µM
9. UGAUACCAGACGGCCGCCACUGGUGCAGUCAAAGACUGCUAAAACCAAAUCGUGGAGUGAUGUUCCAGGACCGGGUCUGGUAUCU [TrypBX 20 #SwitchBubble #Palindromic #StaticStem]  0.423 µM
10. CCCUAAAUAUGCAGUGAUGUUGCAACUGAUACCAGUAUCGAAAGAUACCCUUGGCAGCGGAAAACCGCUACGUAAUUUAAUAGGG [Ex Theophylline A K4 20]  0.393 µM
11. UGGACCAAGGAGUGAUGUUCCAAAUGUGAUACCAGCCACGAAAGUGGCCCUUGGCAGCACUGCCAGGACGAAAACGUCCGGUCCU [#SwitchBubble 12 #StaticStem #K4Early]  0.367 µM
12. GCAGUGAUGUUGCGCAGGUACAGUGGAGUGCGAGGACCGGUACGGCCGCCACUCGUACAGAACUAGCUAAUGUAUGGAUAGGUGA [#11 K4 Tryptophan A Same State]  0.329 µM
13. CAUACGCAUGGAGGAUAUGGGAUUUCUCAUAUUAACCUGUAUCAGGUAUCUCAGUGAUGUUGAGACUCAGAAGGCCAUGUGUAUG [Ex FMN B 25]  0.303 µM
14. GGGAGCAAAGCUCCCGGAUGCUAUUACCAGGAGGAUAUCUGGAAACAGAGAAGGCCUAAGCCAGUGAUGUUGGUUUCGAGCAUCC  0.257 µM
15. AUUUUGGUUUAGAGUGAUGUUCCUUGUAUUCGAGGACCGGUACGGCCGCCACUCGAAUAGAAAAGAAAAGAAAUGUUUGAUUUUU [BDazzled - #7 SS Tryptophan A]  0.211 µM
16. UGAUAGGACAGAAGGAGCGGUAGUGAUGUUGCCAAAAGAAUAAGGUGUCAAAAGACACCCUGCCAGGUAGGUCGCUGUCCUAUCU  0.189 µM
17. UUUCGUCUCUGAGGAUAUCAGAAUAGAGUGAUGUUCUAUCAAAGCCCAGUGAUGUUGGAUGCUAUCUGAGAAGGCAGUGGGCGAG [Same State FMN B GF 11]  0.183 µM
18. GAUCUAUGUCCCGAUACCAGCUCAGAAGCUAGGGAGUGAUGUUCUCGGAGGUUAUCACUGAGCCCUUGGCAGCGGAACGUGACGA [theeternabot_sameState_KL_Theo_B_26]  0.182 µM
19. AAAAUUGCGGUUUUAAGAUCUUUUUGCUUACGAGGACCGGUACGGCCGCCACUCGAGUCAAGUGAUGUUUGAUUUUCUAUUAUUA [JR_ExcTryptoA_Sub015]  0.179 µM
20. AAACGUUGGUCUGAUACCAGCUUGAUCGGUAAACGAUCUACUGGAGUGAUGUUCCUAAAUAGCCCUUGGCAGCAGACCGACGAAA [MAT - Same State Theophlline B - Mod of Eli - D7]  0.163 µM
21. CACGGUUAUACGGCCGCCACUGAUUGCGUUGCAGUGAUGUUGCACGCGUCCGACUACACCUCAUUCAGGACCGGGUAGACAUGCA [theeternabot_exclusion_KL_Trp_B_11]  0.163 µM
22. UGCAUGCUUGUAGUGAUGUUACAAGAUGAUACCAGUGCUUUUUUGCACCCUUGGCAGCGUCAUAGUGCAUGCACGUCGAAAGACG  0.153 µM
23. CUGGUGCUGAUGCGGUGGCCGGUGGUCGUGCGAGGACCGGUACGGCCGCCACUCGCAUGAGUGAUGUUCAUGUGUCGUCGUCGUC [whbob_EX_Tryp_A_t1]  0.134 µM
24. UACUAUAGUGAUGUUAUAGAUAAAACAGAUACCAGUGUUACAUAACACCCUUGGCAGCUGAAAAGGGAAAGUAUAAAUGUGUAUU [AstrosSSTHe-A#1newdesignED]  0.127 µM
25. GGUGACAACCAGGAGUGAUGUAUAGAAUAGCGAGGACCGGUACGGCCGCCACUCGUGAAGAGAAAGGAGUGAUGUUCCGUAAUGG [Kazoo C3]  0.126 µM
26. UAGAUGUUGUAAGAUAUUGAUAGUCGGGAAGGAGCGCUCACAAUAGCAGGUAGGUCGCCCGACAGUGUUAGGAGUGAUGUUCCUU [7.)]  0.119 µM
27. UAUCUUUGCUGAAGGAGCGAGCAUGUUGGAGUGAUGUUCCGAGCGAGUGAUGUUCGCAUAGCUCAGGUAGGUCGCAGUGGGAGGA [Same State Arginie B GF 16]  0.111 µM
28. UUGGCCGGACGGGAUACCAGUCAAAUCGUGUGCUUGGGAUGUCUAAGAGCCAGUGAUGUUGGCCCUUGGCAGCCCUCCCAGCUUG [Esleaqu]  0.105 µM
29. AAAACGCUGUGAAUAACACAGCGAAAUUCGCGAGGACCGGUACGGCCGCCACUCGCUAACUGCGAGUGAUGUUCGAUAAUAAAAU [Mat - Mod of OpenEnded 3 - D3]  0.0903 µM
30. ACGAUCAUGUCGGCCGCCACUGAGAGUAGUGAUGUUACUUUUAUGUUUUAGUUAUAAUAUUUGAACAGGACCGGGACAUGUUCGU [JR_ExcTryptoB_Sub023]  0.0848 µM
31. AAAACUCCGGGUAGUGAUGUUACCUAGGAUACCAGUAUCGCAACAUACCCUUGGCAGCCUCUUCCUGCUGGCGUCGCUUGGCCUA [theeternabot_exclusion_KL_Theo_A_42]  0.0805 µM
32. ACCAUUUUACCGGCAGUAGUGAUGUUACUCCGAGGACCGGUACGGCCGCCACUCGCGAACGUAGGGUCGCGCACUCAAAGAGUGC  0.0756 µM
33. UUGGCAGUGAUGUUGCCAGAGCUCACCGAAGGAGCGCGUGAAAACGCAGGUAGGUCGCGGUAGCGGAGUGAUUCUCCGCGAGGGC [Same State Arginine A GF 21]  0.0717 µM

Same assay, conditions: Eterna round: R107; input ligand: none

In order of falling “apparent KD of K4 kissing-loop reporter” value:
1. UGUCAUUGGUCGGCCGCCACUUCAUAAAGAGUGAUGUUCUUAAAGACGGAUCGAAAGAUCUGUCGAAGGACCGGGACCGAUGACU [FiskerMod 8 - Jieux - Same State - Tryptophan B]  1.5 µM
2. AGAGUUAUGCGAGGAUAUGCAGUUAGUACUCAAAGAGUACUAACAGCAGAGUGAUGUUCUGUGAAAGCAGAAGGUGCAUAACUCA [Omei KL FMN B SS B v7]  1.12 µM
3. AUAGGAGUGAUGUUCCUUAGUCUCUCCGAUACCAGUAUGGAAACAUACCCUUGGCAGCGGUAGACCGCAGAUUAGGAAACUAGUC [Theophylline A K4 3]  0.785 µM
4. UGUAUGUGUCAGCGAGUGAUGUUCGACGAUACCAGACUCGAUAGAGUCCCUUGGCAGCGUAAUGCAUGCCAAACUGGCACAUACU [#SwitchBubble 13 #K4Early]  0.682 µM
5. UAAGAUAUAAGGGAUACCAGCCAUAAGGAAAGUGUGAUGAGUGAUGUUCUGACAAGCCAAGGCCCUUGGCAGCUUUAAUAGCAUC [Theophylline B Same State; Euphoria Solution]  0.471 µM
6. UGGACCAAGGAGUGAUGUUCCAAAUGUGAUACCAGCCACGAAAGUGGCCCUUGGCAGCACUGCCAGGACGAAAACGUCCGGUCCU [#SwitchBubble 12 #StaticStem #K4Early]  0.391 µM
7. CCCUAAAUAUGCAGUGAUGUUGCAACUGAUACCAGUAUCGAAAGAUACCCUUGGCAGCGGAAAACCGCUACGUAAUUUAAUAGGG [Ex Theophylline A K4 20]  0.387 µM
8. UUCAGUGAUGAUGAACACUGUUGUAUAAACUAGGAUAUGCUGAUAAGCAGAAGGAGUGAUGUUCCGUUCAUCAUCAGAAUUAAAU [KL-XFMN-A4]  0.371 µM
9. GGGAGCAAAGCUCCCGGAUGCUAUUACCAGGAGGAUAUCUGGAAACAGAGAAGGCCUAAGCCAGUGAUGUUGGUUUCGAGCAUCC  0.278 µM
10. UCGUCUGUGUGAGGAUAUCCAAGCGAGCUGCGUAAAGGCGCGGCGUUUGGAGUGAUGUUCCAGGCAGGAGAAGGCGCACGGGCUU [Maleisar]  0.245 µM
11. GUAUCGCUAGGAGGAUAUUUCAAUUCGCCUAUAAUAGGUGAUACGGAGUGAUGUUCCGAUUUACGGAAAGAAGGCCUAGUGAUAC [FMN B 10]  0.244 µM
12. GAUCUAUGUCCCGAUACCAGCUCAGAAGCUAGGGAGUGAUGUUCUCGGAGGUUAUCACUGAGCCCUUGGCAGCGGAACGUGACGA [theeternabot_sameState_KL_Theo_B_26]  0.239 µM
13. GGUGACAACCAGGAGUGAUGUAUAGAAUAGCGAGGACCGGUACGGCCGCCACUCGUGAAGAGAAAGGAGUGAUGUUCCGUAAUGG [Kazoo C3]  0.165 µM
14. AAAAUUGCGGUUUUAAGAUCUUUUUGCUUACGAGGACCGGUACGGCCGCCACUCGAGUCAAGUGAUGUUUGAUUUUCUAUUAUUA [JR_ExcTryptoA_Sub015]  0.136 µM
15. UACUAUAGUGAUGUUAUAGAUAAAACAGAUACCAGUGUUACAUAACACCCUUGGCAGCUGAAAAGGGAAAGUAUAAAUGUGUAUU [AstrosSSTHe-A#1newdesignED]  0.133 µM
16. UUGGCCGGACGGGAUACCAGUCAAAUCGUGUGCUUGGGAUGUCUAAGAGCCAGUGAUGUUGGCCCUUGGCAGCCCUCCCAGCUUG [Esleaqu]  0.11 µM
17. GGGCGUUACGGAGUGAUGUUCCGUAGCGAUACCAGCCAUUGCGAUGGCCCUUGGCAGCGCUAUAAGCAUAGAAUUGUAGCGCUUA [Theo A Ex t7b]  0.108 µM
18. UAGAUGUUGUAAGAUAUUGAUAGUCGGGAAGGAGCGCUCACAAUAGCAGGUAGGUCGCCCGACAGUGUUAGGAGUGAUGUUCCUU [7.)]  0.0979 µM
19. GAGAACUCUUACGAUACCAGCCGGAGUGAUGUUCCGCGCUUGGACGUAGUAACCCGCACCGGCCCUUGGCAGCGUGGAUCCUAUG [Bibiinor]  0.0861 µM
20. UUGGCAGUGAUGUUGCCAGAGCUCACCGAAGGAGCGCGUGAAAACGCAGGUAGGUCGCGGUAGCGGAGUGAUUCUCCGCGAGGGC [Same State Arginine A GF 21]  0.0772 µM
21. UGACAUUGCUCAGAUACCAGACAAGAGGAUCACCCUUGUGCCAAAACGUACUAAAUAAAUGUCCCUUGGCAGCUGAGCAAUGUCU [TheoBX 13]  0.0459 µM
